Publication PMC3517971

How the values were obtained:
[1] = biological target: SpoIIE(590–827), PP2C phosphatase domain of SpoIIE from Bacillus subtilis (B. subtilis) (UniProt P37475); assay: crystal structure; crystals from 14–15% polyethylene glycol 400, 0.1 M Tris–HCl (pH 8.5), 0.2 M sodium citrate, 0–50 mM MnCl2; space group P6_(1)22, two molecules in the asymmetric unit; 2.6 Å (PDB 3T91)
[2] = biological target: SpoIIE(590–827), PP2C phosphatase domain of SpoIIE from Bacillus subtilis (B. subtilis) (UniProt P37475); assay: crystal structure; crystals from 0.9–1.2 M sodium acetate, 0.1 M Hepes pH 7.5; protein pre-incubated with 1–2 mM MnCl2 for 30 min; space group P6_(1)22; 2.76 Å (PDB 3T9Q)

stoichiometry N [1]: 2 | stoichiometry N [2]: 2
Substance: SpoIIE(590–827), PP2C phosphatase domain of SpoIIE from Bacillus subtilis (from UniProt P37475 590-827) (domain or fragment)
